Values of other authors in article PMC5133818.

Biological target: cytochrome c (Homo sapiens) (UniProt P99999)
Assay: SPR

Chain of UniProt P99999 (P99999 2-105): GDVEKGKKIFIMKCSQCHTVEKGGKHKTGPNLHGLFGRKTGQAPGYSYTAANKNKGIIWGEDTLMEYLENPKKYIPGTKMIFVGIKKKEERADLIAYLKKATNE

Kd: 200 µM
Substance: neuroglobin (from UniProt Q9NPG2)
